From patent US12383631B2, “Immune antigen specific IL-18 immunocytokines and uses thereof” (Bright Peak Therapeutics AG, priority 2022, dated 2025)

Key:
[1] = molecular target: human neonatal Fc receptor (FcRn) (Homo sapiens, UniProt P55899); test: Human FcRn binding AlphaLISA at pH 6 (Example 9); settings: AlphaLISA competition
Experimental: The interaction of the unmodified and of conjugated anti-PD1 antibodies with the human neonatal Fc receptor (FcRn) at pH 6 was measured using the AlphaLISA® Human FcRn Binding Kit (AL3095C) from Perkin Elmer (Schwerzenbach, Switzerland). […] When reference IgG binds to FcRn, donor and acceptor beads come into proximity enabling the transfer of singlet oxygen that trigger a cascade of energy transfer reactions in the acceptor beads, resulting in a sharp peak of light emission at 615 nm. Addition of a free IgG antibodies into the AlphaLISA® mixture creates a competition for the binding of FcRn to the reference antibody resulting in a loss of signal.
After 90 min at 23° C. in the dark, AlphaLISA® signal was measured on an EnSpire plate reader (Excitation at 680 nm, Emission at 615 nm) from Perkin Elmer (Schwerzenbach, Switzerland).

human PD-L1/B7-H1 = human PD-L1/B7-H1 (Homo sapiens, UniProt Q9NZQ7); test: PD-L1 binding ELISA (Example 5); settings: coated antibody or immunocytokine, biotinylated human PD-L1/B7-H1
Sequence of human PD-L1/B7-H1 (Q9NZQ7 19-290): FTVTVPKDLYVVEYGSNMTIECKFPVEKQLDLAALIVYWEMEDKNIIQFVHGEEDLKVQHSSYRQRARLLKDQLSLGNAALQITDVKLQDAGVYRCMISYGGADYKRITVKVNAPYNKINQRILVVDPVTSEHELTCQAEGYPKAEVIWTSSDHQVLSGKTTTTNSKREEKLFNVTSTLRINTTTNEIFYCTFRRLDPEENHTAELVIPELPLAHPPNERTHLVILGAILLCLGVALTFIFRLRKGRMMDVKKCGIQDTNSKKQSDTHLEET
Experimental: (§1) The interaction of the unmodified antibodies and corresponding IL-18 immunocytokines with relevant immune cell associated antigen are measured by ELISA assay. For these studies, Corning high-binding half-area plates (Fisher Scientific, Reinach, Switzerland) are coated overnight at 4° C. with 25 μl of unmodified antibodies corresponding IL-18 immunocytokines at 5 μg/ml in PBS. Plates are then washed four times with 100 μl of PBS-0.02% Tween20. Plate surfaces are blocked with 25 μl of PBS-0.02% Tween20-1% BSA at 37° C. during 1 h. Plates are then washed four times with 100 μl of PBS-0.02% Tween20. […] Plates are then washed four times with 100 μl of PBS-0.02% Tween20. Twenty-five microliters of Streptavidin-Horseradish peroxidase (#RABHRP3, Merck, Buchs, Switzerland) diluted at 1:500 into PBS-0.02% Tween20-0.1% BSA are added to each well and incubated at Room Temperature during 30 min. Plates are then washed four times with 100 μl of PBS-0.02% Tween20. Fifty microliters of TMB substrate reagent (#CL07, Merck, Buchs, Switzerland) are added to each well and incubated at 37° C. during 5 min. After 5 min at 37° C., Horseradish peroxidase reaction is stopped by adding 50 μl/well of 0.5M H2SO4 stop solution. ELISA signal is then measured at 450 nm on an ENSPTRE® plate reader from Perkin Elmer (Schwerzenbach, Switzerland).

[2] = system: parental PD-1 negative KG-1 cells; test: IFN gamma secretion assay in parental PD-1 negative KG-1 cells (Example 11); type: cell-based, human; settings: IFNγ secretion, 20-24 h
Experimental: (§2) The KG-1 cell line was used to generate a PD-1 expressing cell line and furthermore, to measure IFNγ release upon incubation with TL-18 variants and corresponding TL-18 immunocytokines.
(§3) IFNγ release was assessed in PD-1 positive (transduced) KG-1 cells, as well as in the parental PD-1 negative cells. 0.5×10^5 cells were seeded into a 96-well U-bottom plate in culture media (RPMI, 10% FBS, […]) and stimulated with IL-18 variants/ICs for 20-24 h. The test items were diluted to 100 nM in culture medium, followed by 7 10-fold serial dilutions. The lowest concentration assessed was […]. After incubation, IFNγ release was measured using the LEGENDplex custom human mix and match KIT (Biolegend LEGENDplex™ Human IFN-γ Capture Bead B5, 13×#740942, LEGENDplex™ P 1 Essential Immune Response Panel Detection Abs, #740931, LEGENDplex™ Buffer Set A #740368). To this end, cell culture supernatant was collected and diluted 1:1 with Assay Buffer. Fluorescence measurements were done with a Quanteon Flow Cytometer from Acea Biosciences. For analysis, MFI values (median fluorescence intensity) were exported and plotted against concentrations used. The EC50 values (half maximal effective concentration) were calculated based on a variable slope and four parameter analysis using GraphPad PRISM software version 9.

[3] = system: PD-1 positive (transduced) KG-1 cells; test: IFN gamma secretion assay in PD-1 transduced KG-1 cells (Example 11); type: cell-based, human; settings: IFNγ secretion, PD-1 transduced KG-1 cells, 20-24 h
Experimental: as §2
PD-1 expressing cell line generation: Briefly, KG-1 cells were transduced using lentiviral particles carrying the human PD-1 gene (PDCD1 NM_005018; Origene, CAT #: RC210364L3V) at a MOI (Multiplicity of Infection) of 30. Spinfection was performed at 1260 g during 90 min at 37° C. in the presence of 5 μg/ml of Polybrene and 10 mM of HEPES in complete culture media (RPMI, 10% FBS, 1% L-Glutamine). Five days after transduction, puromycin at a final concentration of 1 μg/ml was added to select for PD-1 positive cells. For culture maintenance, puromycin concentration was decreased to 0.5 μg/ml. Stable and homogenous expression of PD-1 was verified by surface staining (BD Pharmingen, #557860).
as §3

human PD-1/CD279 = human PD-1/CD279 (Homo sapiens, UniProt Q15116); test: PD-1 binding ELISA (Example 5); settings: coated antibody or immunocytokine, biotinylated human PD-1/CD279-Fc
Sequence of human PD-1/CD279 (Q15116 25-288): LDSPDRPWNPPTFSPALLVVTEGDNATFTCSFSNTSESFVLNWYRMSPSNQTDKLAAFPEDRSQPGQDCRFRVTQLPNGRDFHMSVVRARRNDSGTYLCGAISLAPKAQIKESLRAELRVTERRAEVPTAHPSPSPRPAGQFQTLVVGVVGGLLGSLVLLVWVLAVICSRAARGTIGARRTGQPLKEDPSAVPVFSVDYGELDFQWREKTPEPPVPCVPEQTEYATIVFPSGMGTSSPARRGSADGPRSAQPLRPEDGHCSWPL
Experimental: as §1

Sequence of human neonatal Fc receptor (FcRn) (P55899 24-297): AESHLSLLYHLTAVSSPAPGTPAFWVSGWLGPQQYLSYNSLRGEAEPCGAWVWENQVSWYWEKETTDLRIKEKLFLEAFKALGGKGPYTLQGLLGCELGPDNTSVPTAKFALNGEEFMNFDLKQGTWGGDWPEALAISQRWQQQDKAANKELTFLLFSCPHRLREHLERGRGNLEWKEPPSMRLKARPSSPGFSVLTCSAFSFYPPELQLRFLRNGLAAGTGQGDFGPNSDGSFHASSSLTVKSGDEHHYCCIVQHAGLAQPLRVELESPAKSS
Sequence of human neonatal Fc receptor (FcRn) (P61769 21-119 partner): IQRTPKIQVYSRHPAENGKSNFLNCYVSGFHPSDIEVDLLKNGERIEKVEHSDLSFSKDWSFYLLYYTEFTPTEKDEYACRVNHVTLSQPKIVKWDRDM

In the case of “LZM-009: anti-PD-1 antibody (VH SEQ ID NO: 376, VL SEQ ID NO: 377), unconjugated reference antibody [reference compound]”, the Kd [1] is reported as 6 nM and the Kd (human PD-L1/B7-H1) is reported as > 100 nM.

For “Composition B: immunocytokine: Atezolizumab/Tecentriq (anti-PD-L1) conjugated to IL-18 polypeptide SEQ ID NO: 30”, the EC50 [2] was 0.0016 nM, the EC50 [3] was 0.0036 nM and the Kd (human PD-1/CD279) was > 100 nM.

With “Atezolizumab/Tecentriq: anti-PD-L1 antibody, unconjugated reference antibody [reference compound]” the Kd [1] was 6.4 nM, the Kd (human PD-L1/B7-H1) was 0.443 nM and the Kd (human PD-1/CD279) was > 100 nM.
